The text below walks through data of patent US20250313635A1, “ANTI-INTEGRIN ANTIBODIES AND USES THEREOF” (Merck Sharp & Dohme LLC, priority 2022, published 2025).

One assay addresses T1, mαvβ5 (Mus musculus, UniProt O70309+P43406).
T1 construct: The full extracellular domains for all α and β integrin subunits; (GGGS)3 linker (C); acidic coiled-coil with cysteine (C); GG-Avitag (C); hexa-histidine tag (C); basic coiled-coil with cysteine (C); made in house; host or cells: Expi293 cells
As to the kind of experiment: Mouse AlphaLISA integrin-ligand blocking assay (vitronectin). It is filed as biochemical. As to conditions: Table 12; read-out: IC50 Mouse integrin AlphaLISA assays mαvβ5. On the procedure: (§1) Integrin AlphaLISA assay. In the AlphaLISA integrin assays, we used a HEPES based buffer (25 mM HEPES pH 7.4, 137 mM NaCl, 1 mM MgCl2, 1 mM MnCl2, 2 mM CaCl2, 2.7 mM KCl, and 0.05% Tween 20). Optimal assay conditions were determined with a titration of the reagents for signal noise ratio (S/N), linear range, etc. For the respective integrins, we used the final concentrations described in Table 9.
(§2) Briefly, the testing antibody (8 μL) was added as a 4×(of Final testing concentration) solution in the HEPES buffer described previously into a 384w AlphaPlate™ (Perkin Elmer #6005350). Then the integrin and ligand were added sequentially as 8×(4 μL each). Plates were sealed and incubated at room temperature for two hours. Then 4×acceptor bead solution ([…]) was added, and the plates were resealed and incubated at room temperature (RT) for one hour. Finally, 4×([…]) donor beads solution was added in a darkened room and incubated for 45 minutes at room temperature. Plates were read on the Envision (Perkin Elmer) in AlphaScreen™ mode within three hours of donor bead addition.
Background: Alpha assays give light when donor and acceptor beads are brought close together.

The next assay deals with T2, mαvβ8 (Mus musculus, UniProt P43406+Q0VBD0).
T2 construct: The full extracellular domains for all α and β integrin subunits; (GGGS)3 linker (C); acidic coiled-coil with cysteine (C); GG-Avitag (C); hexa-histidine tag (C); basic coiled-coil with cysteine (C); made in house; host or cells: Expi293 cells
As to the kind of experiment: Mouse AlphaLISA integrin-ligand blocking assay (LAP). As to conditions: Table 12; read-out: IC50 Mouse integrin AlphaLISA assays mαvβ8. It counts as biochemical. Here is the method: as §1, §2

In the next assay the target is T3, mα5β1 (Mus musculus, UniProt P09055+P11688).
T3 construct: The full extracellular domains for all α and β integrin subunits; (GGGS)3 linker (C); acidic coiled-coil with cysteine (C); GG-Avitag (C); hexa-histidine tag (C); basic coiled-coil with cysteine (C); made in house; host or cells: Expi293 cells
Description: Mouse AlphaLISA integrin-ligand blocking assay (fibronectin). As to conditions: Table 12; read-out: IC50 Mouse integrin AlphaLISA assays mα5β1. It is filed as biochemical. On the procedure: as §1, §2

For assay [1], the system named is Normal human lung fibroblasts. As to the kind of experiment: αSMA imaging, TGFβ-induced αSMA expression. It counts as cell-based. Here is the method: (§3) αSMA imaging. Primary cells (passage 3-5) were grown on Cell carrier Ultra, collagen Type 1 coated 96-well plates (Perkin Elmer, #6055700) at a density of 25,000 cells/well. Once the cells adhere, they were starved in serum free media for 24 hours followed by addition of treatments, i.e., 5 ng/mL TGFβ (Biolegend #580702)±inhibitors. Cells were pre-treated with inhibitors for 30 minutes prior to the addition of TGFβ stimulation. 48 hours post treatment, the cells were fixed in 4% methanol free paraformaldehyde (ThermoFisher Scientific #28908) for 20 minutes at room temperature and incubated with anti-alpha smooth muscle Actin antibody (Abcam #ab7817) at 1:4000 overnight at 4° C. Following primary antibody incubation, cells were incubated with Goat anti-mouse secondary antibody (ThermoFisher Scientific #A32723) at 1:500 and Hoechst (ThermoFisher Scientific #62249) at 1:1000 for one hour at RT. The fixed and stained cells were images for immunofluorescence on Perkin Elmer's Opera Phenix high content Imager.

Assay [2] concerns IPF patient lung fibroblasts. As to the kind of experiment: αSMA imaging, TGFβ-induced αSMA expression. It is filed as cell-based, human. As to conditions: TGFβ 5 ng/mL, 48 hours, read-out: IC50 of TGFβ-mediated αSMA induction. Here is the method:
as §3

T3 sequence (P11688 45-999 limits assumed): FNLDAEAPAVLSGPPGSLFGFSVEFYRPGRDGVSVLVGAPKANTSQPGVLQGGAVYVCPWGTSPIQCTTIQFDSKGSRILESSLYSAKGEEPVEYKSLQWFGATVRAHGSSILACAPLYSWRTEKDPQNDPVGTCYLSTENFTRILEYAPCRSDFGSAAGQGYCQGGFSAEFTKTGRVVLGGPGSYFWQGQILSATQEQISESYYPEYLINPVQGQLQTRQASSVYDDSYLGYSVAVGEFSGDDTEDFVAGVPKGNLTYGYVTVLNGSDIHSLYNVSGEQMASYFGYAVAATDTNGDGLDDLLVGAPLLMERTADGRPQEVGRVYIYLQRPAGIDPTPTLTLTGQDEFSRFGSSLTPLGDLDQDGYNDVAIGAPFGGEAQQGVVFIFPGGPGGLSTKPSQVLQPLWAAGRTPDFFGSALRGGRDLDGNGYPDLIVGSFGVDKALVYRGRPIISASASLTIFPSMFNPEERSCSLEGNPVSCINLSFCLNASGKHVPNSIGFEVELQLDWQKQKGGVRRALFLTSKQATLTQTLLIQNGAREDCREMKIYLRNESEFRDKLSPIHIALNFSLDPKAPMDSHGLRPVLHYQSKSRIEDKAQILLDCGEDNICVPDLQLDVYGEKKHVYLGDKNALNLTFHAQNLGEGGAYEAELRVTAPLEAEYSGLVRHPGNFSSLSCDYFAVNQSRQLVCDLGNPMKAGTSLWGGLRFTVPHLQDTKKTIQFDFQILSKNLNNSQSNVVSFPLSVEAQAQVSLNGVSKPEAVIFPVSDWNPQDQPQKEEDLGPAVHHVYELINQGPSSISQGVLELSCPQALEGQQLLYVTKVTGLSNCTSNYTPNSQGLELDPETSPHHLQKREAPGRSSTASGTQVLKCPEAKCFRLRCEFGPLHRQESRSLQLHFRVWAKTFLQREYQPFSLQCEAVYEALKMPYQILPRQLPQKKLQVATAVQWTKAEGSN
T3 sequence (P09055 21-728 limits assumed): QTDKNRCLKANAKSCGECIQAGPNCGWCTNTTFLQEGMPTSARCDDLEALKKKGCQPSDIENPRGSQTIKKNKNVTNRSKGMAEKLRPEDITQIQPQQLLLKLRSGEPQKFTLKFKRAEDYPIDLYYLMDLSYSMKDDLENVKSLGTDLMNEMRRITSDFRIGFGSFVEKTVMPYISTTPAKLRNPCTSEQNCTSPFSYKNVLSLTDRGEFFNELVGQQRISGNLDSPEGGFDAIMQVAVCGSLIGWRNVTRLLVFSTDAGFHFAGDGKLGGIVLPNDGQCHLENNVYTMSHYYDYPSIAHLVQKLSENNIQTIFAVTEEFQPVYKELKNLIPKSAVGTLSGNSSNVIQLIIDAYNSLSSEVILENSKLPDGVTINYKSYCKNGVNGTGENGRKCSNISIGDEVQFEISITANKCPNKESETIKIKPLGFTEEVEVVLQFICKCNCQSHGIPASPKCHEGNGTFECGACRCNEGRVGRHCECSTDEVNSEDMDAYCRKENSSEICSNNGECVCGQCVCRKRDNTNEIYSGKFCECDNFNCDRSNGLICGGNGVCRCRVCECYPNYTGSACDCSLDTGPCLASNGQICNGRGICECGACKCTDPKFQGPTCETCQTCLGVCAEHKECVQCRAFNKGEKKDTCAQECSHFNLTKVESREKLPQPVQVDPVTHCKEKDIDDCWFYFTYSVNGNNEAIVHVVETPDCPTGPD
T2 sequence (P43406 31-988 limits assumed): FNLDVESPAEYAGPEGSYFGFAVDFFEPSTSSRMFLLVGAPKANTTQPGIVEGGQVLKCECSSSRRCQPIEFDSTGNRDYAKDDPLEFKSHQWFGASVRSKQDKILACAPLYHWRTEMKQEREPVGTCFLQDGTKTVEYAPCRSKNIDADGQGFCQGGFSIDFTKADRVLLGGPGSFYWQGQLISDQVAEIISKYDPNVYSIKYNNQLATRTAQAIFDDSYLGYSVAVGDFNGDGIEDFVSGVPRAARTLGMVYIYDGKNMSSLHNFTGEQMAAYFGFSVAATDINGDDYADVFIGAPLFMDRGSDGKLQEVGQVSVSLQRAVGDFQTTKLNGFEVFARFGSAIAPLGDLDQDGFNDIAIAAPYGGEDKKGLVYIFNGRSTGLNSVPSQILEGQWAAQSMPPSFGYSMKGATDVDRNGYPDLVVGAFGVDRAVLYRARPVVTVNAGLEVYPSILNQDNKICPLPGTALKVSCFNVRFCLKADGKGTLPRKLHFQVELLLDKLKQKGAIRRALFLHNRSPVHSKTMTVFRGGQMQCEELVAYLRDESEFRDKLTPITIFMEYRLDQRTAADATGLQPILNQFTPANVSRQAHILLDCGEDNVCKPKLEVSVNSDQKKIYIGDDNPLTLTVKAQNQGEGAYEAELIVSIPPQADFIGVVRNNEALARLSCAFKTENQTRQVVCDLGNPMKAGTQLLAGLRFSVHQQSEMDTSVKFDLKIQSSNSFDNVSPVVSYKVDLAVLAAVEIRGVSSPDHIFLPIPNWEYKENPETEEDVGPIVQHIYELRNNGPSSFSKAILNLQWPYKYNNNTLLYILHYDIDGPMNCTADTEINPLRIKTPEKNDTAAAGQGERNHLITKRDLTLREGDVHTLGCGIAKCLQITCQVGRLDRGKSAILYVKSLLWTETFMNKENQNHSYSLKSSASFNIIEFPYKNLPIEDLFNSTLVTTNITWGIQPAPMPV
T2 sequence (Q0VBD0 22-681 limits assumed): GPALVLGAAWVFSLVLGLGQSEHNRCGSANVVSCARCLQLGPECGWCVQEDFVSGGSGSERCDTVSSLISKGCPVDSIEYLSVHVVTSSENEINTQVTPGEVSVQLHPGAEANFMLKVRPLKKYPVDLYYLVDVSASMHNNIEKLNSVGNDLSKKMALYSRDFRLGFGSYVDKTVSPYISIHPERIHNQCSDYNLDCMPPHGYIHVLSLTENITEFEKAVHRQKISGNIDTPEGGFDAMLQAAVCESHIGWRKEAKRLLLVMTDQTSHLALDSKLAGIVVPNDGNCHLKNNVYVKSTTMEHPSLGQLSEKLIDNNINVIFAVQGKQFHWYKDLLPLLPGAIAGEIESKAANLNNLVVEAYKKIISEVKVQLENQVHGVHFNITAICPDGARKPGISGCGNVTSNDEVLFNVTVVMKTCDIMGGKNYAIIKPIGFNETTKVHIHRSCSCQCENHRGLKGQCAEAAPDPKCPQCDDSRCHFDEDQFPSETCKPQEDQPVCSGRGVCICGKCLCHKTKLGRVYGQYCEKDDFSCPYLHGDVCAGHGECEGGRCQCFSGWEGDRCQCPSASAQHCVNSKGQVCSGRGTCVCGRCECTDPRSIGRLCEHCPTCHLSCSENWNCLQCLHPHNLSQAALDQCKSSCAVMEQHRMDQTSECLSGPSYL
T1 sequence (P43406 31-988 limits assumed): as the sequence (P43406 31-988 limits assumed) above
T1 sequence (O70309 24-719 limits assumed): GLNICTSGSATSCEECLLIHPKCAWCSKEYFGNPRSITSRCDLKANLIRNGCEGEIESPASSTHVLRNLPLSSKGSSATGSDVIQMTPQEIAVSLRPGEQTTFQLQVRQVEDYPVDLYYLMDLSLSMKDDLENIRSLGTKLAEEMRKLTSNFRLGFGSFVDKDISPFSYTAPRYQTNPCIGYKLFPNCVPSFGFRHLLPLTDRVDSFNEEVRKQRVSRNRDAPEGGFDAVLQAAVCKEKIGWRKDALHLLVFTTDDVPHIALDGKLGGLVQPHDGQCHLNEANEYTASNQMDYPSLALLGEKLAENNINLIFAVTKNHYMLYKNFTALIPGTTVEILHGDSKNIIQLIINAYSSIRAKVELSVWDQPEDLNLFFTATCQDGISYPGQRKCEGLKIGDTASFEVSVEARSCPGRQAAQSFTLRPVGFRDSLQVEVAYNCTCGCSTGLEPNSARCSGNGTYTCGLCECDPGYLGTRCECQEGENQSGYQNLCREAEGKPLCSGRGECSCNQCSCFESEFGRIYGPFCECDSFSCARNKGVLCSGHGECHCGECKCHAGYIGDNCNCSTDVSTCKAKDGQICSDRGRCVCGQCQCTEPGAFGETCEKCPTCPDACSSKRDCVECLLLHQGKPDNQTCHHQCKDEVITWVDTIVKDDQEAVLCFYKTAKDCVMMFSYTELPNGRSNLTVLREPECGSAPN

B1: Ab-31: integrin binder antibody, VH SEQ ID NO: 35, VL SEQ ID NO: 36 (antibody, V domains shown)
VH: EVQLQESGPGLVKPSETLSLTCAVSGYSISSGYYWGWIRQPPGKGLEWIGSIYHSGNTYYNPSLKSRVTISVDTSKNQFSLKLSSVTAADTAVYYCARVPRYSRGDAYYYYGMDVWGQGTTVTVSS
VL: DIQMTQSPSTLSASVGDRVTITCRASQSIGSWLAWYQQKPGKAPKLLIYKASSLESGVPSRFSGSGSGTEFTLTISSLQPDDFATYYCQQSGPYPWTFGGGTKVEIK
Consider B1, for which the IC50 (in general, the midpoint of a concentration-inhibition curve) with mαvβ5 was above 250 nM; with mαvβ8, 66.3 nM; with mα5β1 it was above 250 nM; in assay [2], 33 ± 21 nM. Besides, in assay [1], the “activity on TGFβ-induced αSMA in normal human lung fibroblasts” value is “ineffective”.

B2: Ab-32: integrin binder antibody, VH SEQ ID NO: 37, VL SEQ ID NO: 38 (antibody, V domains shown)
VH: EVQLQESGPGLVKPSETLSLTCAVSGYSISSGYYWGWIRQPPGKGLEWIGSIYHSGNTYYNPSLKSRVTISVDTSKNQFSLKLSSVTAADTAVYYCARVPRYSRGDAYYYYGMDVWGQGTTVTVSS
VL: EIVLTQSPGTLSLSPGERATLSCRASQSVRSSYLAWYQQKPGQAPRLLIYGASSRATGIPDRFSGSGSGTDFTLTISRLEPEDFAVYYCQQAGLVFTFGGGTKVEIK
Regarding B2, the IC50 in the assay with mαvβ5 was above 250 nM; with mαvβ8, 71.9 nM; with mα5β1 it was above 250 nM.

B3: Ab-30: integrin binder antibody, VH SEQ ID NO: 33, VL SEQ ID NO: 34 (antibody, V domains shown)
VH: EVQLQESGPGLVKPSETLSLTCAVSGYSISSGYYWGWIRQPPGKGLEWIGSIYHSGNTYYNPSLKSRVTISVDTSKNQFSLKLSSVTAADTAVYYCARVPRYSRGDAYYYYGMDVWGQGTTVTVSS
VL: DIQMTQSPSTLSASVGDRVTITCRASQSISSWLAWYQQKPGKAPKLLIYKASSLESGVPSRFSGSGSGTEFTLTISSLQPDDFATYYCQQVKIYPPYTFGGGTKVEIK
For the molecule B3, the IC50 with mαvβ5 is above 250 nM; in the assay with mαvβ8, 25.1 nM; with mα5β1 it was above 250 nM.

B4: Ab-33: integrin binder antibody, VH SEQ ID NO: 39, VL SEQ ID NO: 40 (antibody, V domains shown)
VH: EVQLVQSGAEVKKPGSSVKVSCKASGGTFSNYAISWVRQAPGQGLEWMGGIIPIFGTANYAQKFQGRVTITADESTSTAYMELSSLRSEDTAVYYCARAPRSARGDMYYYYYGMDVWGQGTTVTVSS
VL: DIQMTQSPSTLSASVGDRVTITCRASQSIGSWLAWYQQKPGKAPKLLIYKASSLESGVPSRFSGSGSGTEFTLTISSLQPDDFATYYCQQYGRYPWTFGGGTKVEIK
In the case of B4, the IC50 with mαvβ8 was 24.7 nM; with mα5β1 it was above 250 nM.

B5: Ab-29: integrin binder antibody, VH SEQ ID NO: 31, VL SEQ ID NO: 32 (antibody, V domains shown)
VH: ELQLQESGPGLVKPSETLSLTCTVSGGSISSNSYYWGWIRQPPGKGLEWIGSIYYSGSTYYNPSLKSRVTISVDTSKNQFSLKLSSVTAADTAVYYCARVRRVAGRGDSYYYYYGMDVWGQGTTVTVSS
VL: DIQMTQSPSSVSASVGDRVTITCRASQGISRWLAWYQQKPGKAPKLLIYAASSLQSGVPSRFSGSGSGTDFTLTISSLQPEDFATYYCQQAISHPWTFGGGTKVEIK
For B5, the results for the IC50 with mαvβ8 and with mα5β1 were 102 nM and above 250 nM, respectively.
